The conditions of the data set: Equus caballus, Thermal, CD, Potassium citrate 10 mM, KCl 0.1 mM, reversible: yes, whole UniProt chain shown.

B1: Beta-lactoglobulin-1 wild type, P02758 (protein)
chain: MKCLLLALGLALMCGIQATNIPQTMQDLDLQEVAGKWHSVAMAASDISLLDSESAPLRVYIEKLRPTPEDNLEIILREGENKGCAEKKIFAEKTESPAEFKINYLDEDTVFALDTDYKNYLFLCMKNAATPGQSLVCQYLARTQMVDEEIMEKFRRALQPLPGRVQIVPDLTRMAERCRI
As usually defined, the Tm is the temperature at which the thermal transition is half complete. Consider B1, for which the Tm (pH 3.65) came out at 47.5 °C; the midpoint of thermal melting (Tm) (pH 3.71) stood at 49.4 °C; the Tm (pH 4) was found to be 58.3 °C; the Tm (pH 4.2) came to 59.7 °C; the Tm (pH 4.22) was found to be 61.4 °C; the Tm (pH 4.23) worked out at 57.3 °C. Besides, the “unfolding enthalpy (van 't Hoff)” value turned out to be 37.8 kcal/mol (pH 3.65); 44.2 kcal/mol (pH 3.71); 51.5 kcal/mol (pH 4); 57.1 kcal/mol (pH 4.2); 57.8 kcal/mol (pH 4.22); 52.7 kcal/mol (pH 4.23).
